From patent publication US8841270B2, “Use of inhibitors of Zdhhc2 activity for modulation of adipogenesis” (Sanofi, priority 2009, dated 2014) come the findings set out here.

One series deals with C57BL/6J mice. Nature of the series: Rimonabant treatment of high fat diet fed mice, glucose tolerance. Type of series: in vivo, mouse. The conditions noted are these: HFD C57BL/6J mice, rimonabant 10 mg·kg−1·day−1 for one month. From the text: C57BL/6J mice, which are obesity-prone (5), were fed for 6 months with a high fat diet (HFD).
A further series deals with 3T3-L1 cells. Nature of the series: Adipogenesis of retrovirally transduced 3T3-L1 cells (oil-red-O staining, aP2 mRNA by RT-PCR). The format is cell-based, mouse. As for the experimental part:
3T3-L1 cells were cultured in DMEM (Gibco) with 10% FBS (Gibco) at 5% CO2. After retroviral infection (see below), cells were allow to grow to confluence in either 100-mm or 60-mm dishes in DMEM with 10% FBS. Once confluence was reached, cells were exposed to differentiation medium containing dexamethasone (1 μM), insulin (5 μg/ml), and isobutylmethylxanthine ([…]) (DMI). After 2 days cells were maintained in medium containing insulin ([…]) until ready for harvest at 7 days.
After 7 to 10 days of differentiation, cells were washed once in PBS and fixed with formaldehyde (Formalde-fresh; Fisher) for 15 minutes. The staining solution was prepared by dissolving 0.5 g oil-red-0 in 100 ml of isopropanol; 60 ml of this solution was mixed with 40 ml of distilled water. After 1 hour at room temperature the staining solution was filtered and added to dishes for 4 hours. The staining solution was then removed and cells were washed twice with distilled water.
Retroviruses were constructed in the RNAi-Ready pSIREN-RetroQ ZsGreen (pSIREN Clontech). Viral constructs were transfected using calcium-phosphate method described in Jordan, M. et al. (2004) into 293 HEK packaging cells along with constructs encoding gag-pol and the VSV-G protein. […]

For a further series, the system named is Zdhhc2. Nature of the series: shRNA knockdown of Zdhhc2 expression, mRNA by RT-PCR. Type of series: cell-based, mouse. Particulars: shRNA in pSIREN plasmid, tested in 293T HEK cells; mRNA by RT-PCR (FIG. 3A). The text has this: shRNAs were constructed using the RNAi-Ready pSIREN-RetroQ ZsGreen (Clontech). Target sequences for Zdhhc2 were designed by querying the Whitehead siRNA algorithm (http://jura.wi.mit.edu/bioc/siRNAext/) as well as the siRNA designer software from Clontech (http://bioinfo.clontech.com/rnaidesigner/); at least two sequences represented by both algorithms were subcloned into the pSIREN vectors (Clontech) using the EcoRI and BamH1 restriction sites. The following target sequences for Zdhhc2 were chosen SEQ ID NO. 5 and 6 as a negative control, we used the following siRNA sequence against luciferase: SEQ ID NO. 7.
The specificity of shRNAs was tested in 293T HEK cells co-transfected using calcium-Phosphate methods described in (14) with expression vectors containing Zdhhc2 cDNA and the RNAi-Ready pSIREN-RetroQ ZsGreen vector expressing either the shRNA against lucifeare (control shLUC) or Zdhhc2 (shZdhhc2). RT-PCR analysis was performed on cell RNA-extraction 24 h after transfection.
Total RNA was isolated from cultured cells using peqGOLD TriFast reagent according to the manufacturer's instructions (Axonlab). First strand cDNA was synthesized from 0.5 μg of total RNA using random primers and Superscript II (Invitrogen). […]
For the loss-of-function studies, shRNA specific for Zdhhc2 subcloned into a retroviral vector from Clontech were used (RNAi-Ready pSIREN-RetroQ ZsGreen or pSIREN). […]

Consider `Cc1c(C(=O)NN2CCCCC2)nn(-c2ccc(Cl)cc2Cl)c1-c1ccc(Cl)cc1` [rimonabant], for which the glucose tolerance entry with C57BL/6J mice was “normalized glucose tolerance”.

B1: shLuc: negative control shRNA directed against luciferase, SEQ ID NO. 7 (nucleic acid)
chain: GATCCGTGCGTTGCTAGTACCAATTCAAGAGATTGGTACTAGCAACGCACTTTTTTACGCGTG
On to B1, for which the “inhibition of adipogenesis in vitro” value in the series with 3T3-L1 cells (3T3-L1 cells, oil-red-O staining and aP2 expression at day 9) was “no inhibition”.

B2: shZdhhc2-2: shRNA specific for Zdhhc2 in pSIREN retroviral vector; target sequence probably SEQ ID NO. 6 (nucleic acid)
DNA: GATCCGTATGAGCAACCCTGCATTTCAAGAGAATGCAGGGTTGCTCATACTTTTTTACGCGTG
B2: the “knockdown of Zdhhc2 expression” value with Zdhhc2 is listed as 50%. In the series on 3T3-L1 cells (infected 3T3-L1 cells, day 9 of differentiation with DMI, RT-PCR), the aP2 expression decreased is given as 60%.
